From US6566088

T1: Biotin-Acp-DLDLEALAPYIPADDDFQL, human HIF-1a ODD peptide, wild type, not hydroxylated
T1 chain: DLDLEALAPYIPADDDFQL

T2: Biotinylated human HIF-1a ODD peptide with A563G, not hydroxylated
T2 chain: DLDLEALGPYIPADDDFQL

T3: Biotinylated human HIF-1a ODD peptide with L562A, not hydroxylated
T3 chain: DLDLEAAAPYIPADDDFQL

T4: Biotinylated human HIF-1a ODD peptide with Pro567 to Gly, not hydroxylated
T4 chain: DLDLEALAPYIGADDDFQL

T5: Biotinylated human HIF-1a ODD peptide with Y565A, not hydroxylated
T5 chain: DLDLEALAPAIPADDDFQL


Key:
[1] = target: T1, Biotin-Acp-DLDLEALAPYIPADDDFQL, human …
[2] = target: T2, Biotinylated human HIF-1a ODD peptide …
[3] = target: T3, Biotinylated human HIF-1a ODD peptide …
[4] = target: T4, Biotinylated human HIF-1a ODD peptide …
[5] = target: T5, Biotinylated human HIF-1a ODD peptide …

Row | Protein | prolyl hydroxylase activity [1] | prolyl hydroxylation of variant peptide substrates [2] | prolyl hydroxylation of variant peptide substrates [3] | prolyl hydroxylation of variant peptide substrates [4] | prolyl hydroxylation of variant peptide substrates [5] | prolyl hydroxylase activity, [^35S]-pVHL pull-down assay [1]
1 | recombinant human HPH 2 with amino-terminal MBP, purified from E. coli (protein) ANDSGGPGGPSPSERDRQYCELCGKMENLLRCSRCRSSFYCCKEHQRQDWKKHKLVCQGSEGALGHGVGPHQHSGPAPPAAVPPPRAGAREPRKAAARRDNASGDAAKGKVKAKPPADPAAAASPCRAAAGGQGSAVAAEAEPGKEEPPARSSLFQEKANLYPPSNTPGDALSPGGGLRPNGQTKPLPALKLALEYIVPCMNKHGICVVDDFLGKETGQQIGDEVRALHDTGKFTDGQLVSQKSDSSKDIRGDKITWIEGKEPGCETIGLLMSSMDDLIRHCNGKLGSYKINGRTKAMVACYPGNGTGYVRHVDNPNGDGRCVTCIYYLNKDWDAKVSGGILRIFPEGKAQFADIEPKFDRLLFFWSDRRNPHEVQPAYATRYAITVWYFDADERARAKVKYLTGEKGVRVELNKPSDSVGKDVF | Purified HPH 2 was able to hydroxylate the HIF-1a peptide substrate | unable to modify peptides containing the L562A, A563G or Y565A mutations | unable to modify peptides containing the L562A, A563G or Y565A mutations | a peptide containing a mutation of Pro^567 to glycine served as an equal, if not better, substrate for the human HPH enzymes | unable to modify peptides containing the L562A, A563G or Y565A mutations | –
2 | human HPH 2 (splice variant) with carboxy-terminal V5-HIS tag, in vitro translated (protein) ANDSGGPGGPSPSERDRQYCELCGKMENLLRCSRCRSSFYCCKEHQRQDWKKHKLVCQGSEGALGHGVGPHQHSGPAPPAAVPPPRAGAREPRKAAARRDNASGDAAKGKVKAKPPADPAAAASPCRAAAGGQGSAVAAEAEPGKEEPPARSSLFQEKANLYPPSNTPGDALSPGGGLRPNGQTKPLPALKLALEYIVPCMNKHGICVVDDFLGKETGQQIGDEVRALHDTGKFTDGQLVSQKSDSSKDIRGDKITWIEGKEPGCETIGLLMSSMDDLIRHCNGKLGSYKINGRTKAMVACYPGNGTGYVRHVDNPNGDGRCVTCIYYLNKDWDAKVSGGILRIFPEGKAQFADIEPKFDRLLFFWSDRRNPHEVQPAYATRYAITVWYFDADERARAKVKYLTGEKGVRVELNKPSDSVGKDVF | – | – | – | – | – | both of these enzymes were observed to catalyze the hydroxylation of the key proline residue in the HIF-1a peptide substrate
3 | human HPH 1 H196A with carboxy-terminal V5-HIS tag (protein) MPLGHIMRLDLEKIALEYIVPCLHEVGFCYLDNFLGEVVGDCVLERVKQLHCTGALRDGQLAGPRAGVSKRHLRGDQITWIGGNEEGCEAISFLLSLIDRLVLYCGSRLGKYYVKERSKAMVACYPGNGTGYVRHVDNPNGDGRCITCIYYLNKNWDAKLHGGILRIFPEGKSFIADVEPIFDRLLFFWSDRRNPAEVQPSYATRYAMTVWYFDAEERAEAKKKFRNLTRKTESALTED | Each of these mutations eliminated the prolyl hydroxylase activity of the native HPH 1 enzyme | – | – | – | – | –
4 | human HPH 1 H135A with carboxy-terminal V5-HIS tag (protein) MPLGHIMRLDLEKIALEYIVPCLHEVGFCYLDNFLGEVVGDCVLERVKQLHCTGALRDGQLAGPRAGVSKRHLRGDQITWIGGNEEGCEAISFLLSLIDRLVLYCGSRLGKYYVKERSKAMVACYPGNGTGYVRAVDNPNGDGRCITCIYYLNKNWDAKLHGGILRIFPEGKSFIADVEPIFDRLLFFWSDRRNPHEVQPSYATRYAMTVWYFDAEERAEAKKKFRNLTRKTESALTED | Each of these mutations eliminated the prolyl hydroxylase activity of the native HPH 1 enzyme | – | – | – | – | –
5 | human HPH 1 D137A with carboxy-terminal V5-HIS tag (protein) MPLGHIMRLDLEKIALEYIVPCLHEVGFCYLDNFLGEVVGDCVLERVKQLHCTGALRDGQLAGPRAGVSKRHLRGDQITWIGGNEEGCEAISFLLSLIDRLVLYCGSRLGKYYVKERSKAMVACYPGNGTGYVRHVANPNGDGRCITCIYYLNKNWDAKLHGGILRIFPEGKSFIADVEPIFDRLLFFWSDRRNPHEVQPSYATRYAMTVWYFDAEERAEAKKKFRNLTRKTESALTED | Each of these mutations eliminated the prolyl hydroxylase activity of the native HPH 1 enzyme | – | – | – | – | –
6 | human HIF prolyl hydroxylase 1 (HPH 1) with carboxy-terminal V5-HIS tag (protein) MPLGHIMRLDLEKIALEYIVPCLHEVGFCYLDNFLGEVVGDCVLERVKQLHCTGALRDGQLAGPRAGVSKRHLRGDQITWIGGNEEGCEAISFLLSLIDRLVLYCGSRLGKYYVKERSKAMVACYPGNGTGYVRHVDNPNGDGRCITCIYYLNKNWDAKLHGGILRIFPEGKSFIADVEPIFDRLLFFWSDRRNPHEVQPSYATRYAMTVWYFDAEERAEAKKKFRNLTRKTESALTED | – | unable to modify peptides containing the L562A, A563G or Y565A mutations | unable to modify peptides containing the L562A, A563G or Y565A mutations | a peptide containing a mutation of Pro^567 to glycine served as an equal, if not better, substrate for the human HPH enzymes | unable to modify peptides containing the L562A, A563G or Y565A mutations | Of the five candidate enzymes assayed, only one, HPH-1, was able to enhance pVHL association with the biotinylated peptide
